These results are taken from paper PMC11601596.

For experiment [1], the target named is Citrobacter sp. RHBSTW-00271 BubCD D104A peptidase domain mutant (Citrobacter sp. RHBSTW-00271). Put plainly: crystal structure.
The target of experiment [2] is Citrobacter sp. RHBSTW-00271 BubCD (JAB/JAMM family peptidase-E1 fusion), wild type (Citrobacter sp. RHBSTW-00271). As to the kind of experiment: crystal structure.

One may read the stoichiometry N as the number of molecules, sites or subunits per partner or assembly. In experiment [1], “Citrobacter sp. RHBSTW-00271 BubCD D104A peptidase domain mutant (enzyme)” had a stoichiometry N of 2. On to “Citrobacter sp. RHBSTW-00271 BubCD (JAB/JAMM family peptidase-E1 fusion), wild type (enzyme)”, for which the stoichiometry N in experiment [2] stood at 2.
